From PMC7330101 come the findings set out here.

The test concerns the target SUN2 (human (endogenous in HUVECs)) (UniProt Q9UH99). Nature of the test: proximity ligation; Duolink in situ PLA on fixed, saponin-permeabilised HUVECs with primary antibodies against SUN2 and Nesprin1; cells exposed to PS (12 ± 4 dynes/cm^2) or OS (0.5 ± 4 dynes/cm^2) for 6 h.
UniProt Q9UH99, sequence (Q9UH99 whole entry): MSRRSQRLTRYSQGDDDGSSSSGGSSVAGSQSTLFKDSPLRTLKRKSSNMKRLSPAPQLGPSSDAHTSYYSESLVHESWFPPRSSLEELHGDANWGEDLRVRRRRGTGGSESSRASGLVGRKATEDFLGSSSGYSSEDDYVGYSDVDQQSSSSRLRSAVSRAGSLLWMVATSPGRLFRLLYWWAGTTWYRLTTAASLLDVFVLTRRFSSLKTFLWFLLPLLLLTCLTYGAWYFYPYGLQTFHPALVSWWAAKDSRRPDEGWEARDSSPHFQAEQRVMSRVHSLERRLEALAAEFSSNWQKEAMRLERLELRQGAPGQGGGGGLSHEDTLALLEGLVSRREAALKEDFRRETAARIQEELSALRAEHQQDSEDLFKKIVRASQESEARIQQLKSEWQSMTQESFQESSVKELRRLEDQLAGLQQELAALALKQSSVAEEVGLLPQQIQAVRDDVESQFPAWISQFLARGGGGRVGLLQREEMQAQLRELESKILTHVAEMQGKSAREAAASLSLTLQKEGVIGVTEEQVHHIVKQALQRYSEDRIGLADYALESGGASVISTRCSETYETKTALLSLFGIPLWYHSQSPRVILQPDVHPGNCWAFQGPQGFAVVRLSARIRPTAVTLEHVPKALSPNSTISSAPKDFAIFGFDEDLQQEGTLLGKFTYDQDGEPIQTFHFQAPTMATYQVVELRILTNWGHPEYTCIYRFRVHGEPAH

As for Nesprin1, Q8NF91 1-8797, the PLA punctuated signals per cell (cells exposed to OS) was 2 per cell and the PLA punctuated signals per cell (cells exposed to PS) worked out at 7 per cell.
